Laboratory results reported in patent publication US20230203107A1, “PEPTIDE FOR TREATING SEPSIS DERIVED FROM RV3364C PROTEIN OF MYCOBACTERIUM TUBERCULOSIS” (priority 2021, published 2023).

Biological target: T1, SNX9 BAR domain (Homo sapiens, UniProt Q9Y5X1)
T1 construct: different regions 1-595, 1-250, 250-361, and 392-595 of SNX9; expressed in transfected cells; host or cells: 293T (pEF-IRES-Puro expression vector)
Format: cell-based

T1 sequence (Q9Y5X1 392-595): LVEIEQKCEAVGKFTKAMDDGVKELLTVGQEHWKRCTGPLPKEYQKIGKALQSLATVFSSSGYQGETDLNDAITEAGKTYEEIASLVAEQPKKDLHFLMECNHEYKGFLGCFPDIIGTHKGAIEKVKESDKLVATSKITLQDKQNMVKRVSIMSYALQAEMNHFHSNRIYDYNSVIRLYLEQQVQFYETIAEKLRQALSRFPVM

Substance: Rv3364c: Rv3364c protein of Mycobacterium tuberculosis, expressed in 293T cells from a Flag-tagged plasmid
- domain of SNX9 interacting with Rv3364c: interacted with SNX9 through a Bin-Amphiphysin-Rvs (BAR) domain
